Results taken from patent EP4471048A1, “PEPTIDE INHIBITORS OF INTERLEUKIN-23 RECEPTOR” (Zealand Pharma A/S, priority 2023, dated 2024).
*1 amine or outer side, *2 acyl side, *3 side chain or, on linkers, in order; H or OH if unused. Bridges are numbered along the chain shown (N, C = ends). Primed or numbered codes have the meaning given here. Where no end group is shown, it is not given here. [ ]: non-standard residue; d: D form. 4‑Aminomethyl‑phenylacetyl = 4-aminomethyl-phenylacetyl unit, its amine closes the lactam, O=C(Cc1ccc(CN[*:1])cc1)[*:2]; 1,3‑dibromopropan‑2‑one″ = linker forming 1,3-dithio-propan-2-one bridge -SCH2C(=O)CH2S- between two Cys; bLys = L-beta-lysine, (3S)-3,6-diaminohexanoic acid, O=C(C[C@H](CCCN[*:3])N[*:1])[*:2]; Phe(4-Me) = Cc1ccc(C[C@H](N)C(=O)O)cc1; 2Nal = N[C@@H](Cc1ccc2ccccc2c1)C(=O)O; AEF = NCCOc1ccc(C[C@H](N)C(=O)O)cc1; 3Pal = N[C@@H](Cc1cccnc1)C(=O)O; αMeL = CC(C)C[C@](C)(N)C(=O)O; 3Amb = NCc1cccc(C(=O)O)c1; Dab = NCC[C@H](N)C(=O)O; Aib = CC(C)(N)C(=O)O

T1: human IL-23R endogenously expressed on DB cells (human, UniProt Q5VWK5 24-629)
T1 sequence (looked up): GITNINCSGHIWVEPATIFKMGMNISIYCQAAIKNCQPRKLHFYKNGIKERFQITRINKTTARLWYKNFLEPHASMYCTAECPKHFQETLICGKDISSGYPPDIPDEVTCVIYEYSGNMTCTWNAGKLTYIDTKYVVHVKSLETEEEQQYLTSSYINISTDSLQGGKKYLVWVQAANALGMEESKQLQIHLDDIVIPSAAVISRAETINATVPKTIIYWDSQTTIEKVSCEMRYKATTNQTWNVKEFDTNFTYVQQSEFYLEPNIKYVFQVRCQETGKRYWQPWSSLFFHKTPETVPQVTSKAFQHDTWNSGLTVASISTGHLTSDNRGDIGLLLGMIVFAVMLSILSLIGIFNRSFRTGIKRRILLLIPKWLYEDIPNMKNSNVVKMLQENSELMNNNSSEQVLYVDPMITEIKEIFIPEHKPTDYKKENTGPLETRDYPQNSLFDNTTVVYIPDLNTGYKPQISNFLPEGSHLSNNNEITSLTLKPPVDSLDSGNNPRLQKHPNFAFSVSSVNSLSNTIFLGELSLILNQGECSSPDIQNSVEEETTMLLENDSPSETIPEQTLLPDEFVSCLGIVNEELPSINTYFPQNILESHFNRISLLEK

T2: Nluc-IL23R fusion protein (human, UniProt Q5VWK5 22-629)
T2 construct: range 22-629; Stably expressed in HEK293 cells; also called hIL-23R; human IL-23R; not shown: Nanoluc protein (N1371, Promega) at the N-terminus, after a secretion signal
T2 sequence (looked up): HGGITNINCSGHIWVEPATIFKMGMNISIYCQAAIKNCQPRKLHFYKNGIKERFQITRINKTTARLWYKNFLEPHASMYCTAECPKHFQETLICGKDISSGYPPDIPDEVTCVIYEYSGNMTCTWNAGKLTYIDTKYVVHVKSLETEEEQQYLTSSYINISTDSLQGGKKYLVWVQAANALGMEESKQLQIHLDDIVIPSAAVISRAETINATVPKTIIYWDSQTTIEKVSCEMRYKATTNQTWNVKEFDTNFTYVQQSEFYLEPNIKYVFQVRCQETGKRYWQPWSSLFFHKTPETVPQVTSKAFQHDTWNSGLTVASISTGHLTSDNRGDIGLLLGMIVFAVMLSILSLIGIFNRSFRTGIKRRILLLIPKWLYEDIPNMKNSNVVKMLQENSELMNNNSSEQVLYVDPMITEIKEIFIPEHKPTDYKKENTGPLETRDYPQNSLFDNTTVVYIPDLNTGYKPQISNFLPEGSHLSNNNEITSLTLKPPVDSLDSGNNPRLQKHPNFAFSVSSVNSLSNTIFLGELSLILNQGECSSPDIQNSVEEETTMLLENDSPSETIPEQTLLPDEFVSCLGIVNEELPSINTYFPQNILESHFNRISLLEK


Assays:
[1] = biological target: T1, human IL-23R endogenously expressed on …; experiment: cell-based or functional assay
[2] = biological target: T2, Nluc-IL23R fusion protein; experiment: BRET competition vs TAMRA-labelled peptide, Nluc-IL23R membranes

| hIL-23 (pSTAT3) antagonist % inhibition [1] [%] | hIL-23 (pSTAT3) antagonist IC50 [1] | % displacement [2] [%] | IC50 [2] [nM] | Binder |
| --- | --- | --- | --- | --- |
| 97 | 11 nM | 98 | – | [4‑Aminomethyl‑phenylacetyl]SCWQC[AEF][2Nal][αMeL]E[dR]-NH2 (lactam N-10; linker 3-6 via 1,3‑dibromopropan‑2‑one″) [Ref 80] |
| 99 | 0.11 nM | 100 | – | KTVWQE[AEF][2Nal][αMeL]E[Dab][3Pal]-NH2 (lactam 1-10, N-6; SMILES CC(C)C[C@]1(C)NC(=O)[C@H](Cc2ccc3ccccc3c2)NC(=O)[C@H](Cc2ccc(OCCN)cc2)NC(=O)[C@@H]2CCC(=O)N[C@@H](CCCCNC(=O)CC[C@@H](C(=O)N[C@@H](CCN)C(=O)N[C@@H](Cc3cccnc3)C(N)=O)NC1=O)C(=O)N[C@@H]([C@@H](C)O)C(=O)N[C@@H](C(C)C)C(=O)N[C@@H](Cc1c[nH]c3ccccc13)C(=O)N[C@@H](CCC(N)=O)C(=O)N2) [Compound 2] |
| 97 | 1.1 nM | 100 | – | KTWQE[AEF][2Nal][αMeL]E[Dab][3Pal]-NHMe (lactam 1-9, N-5; SMILES CNC(=O)[C@H](Cc1cccnc1)NC(=O)[C@H](CCN)NC(=O)[C@@H]1CCC(=O)NCCCC[C@@H]2NC(=O)CC[C@H](NC(=O)[C@H](CCC(N)=O)NC(=O)[C@H](Cc3c[nH]c4ccccc34)NC(=O)[C@H]([C@@H](C)O)NC2=O)C(=O)N[C@@H](Cc2ccc(OCCN)cc2)C(=O)N[C@@H](Cc2ccc3ccccc3c2)C(=O)N[C@@](C)(CC(C)C)C(=O)N1) [Compound 36] |
| 99 | 2.9 nM | 107 | 0.092 | KIVWQE[Phe(4-Me)][2Nal][Aib]E[Dab][3Pal]-NH2 (lactam 1-10, N-6; SMILES CC[C@H](C)[C@@H]1NC(=O)[C@@H]2CCCCNC(=O)CC[C@@H](C(=O)N[C@@H](CCN)C(=O)N[C@@H](Cc3cccnc3)C(N)=O)NC(=O)C(C)(C)NC(=O)[C@H](Cc3ccc4ccccc4c3)NC(=O)[C@H](Cc3ccc(C)cc3)NC(=O)[C@H](CCC(=O)N2)NC(=O)[C@H](CCC(N)=O)NC(=O)[C@H](Cc2c[nH]c3ccccc23)NC(=O)[C@H](C(C)C)NC1=O) [Compound 17] |
| 101 | 0.63 nM | 95 | – | KIVWQE[AEF][2Nal][αMeL]E[Dab][3Pal]-NHMe (lactam 1-10, N-6; SMILES CC[C@H](C)[C@@H]1NC(=O)[C@@H]2CCCCNC(=O)CC[C@@H](C(=O)N[C@@H](CCN)C(=O)N[C@@H](Cc3cccnc3)C(=O)NC)NC(=O)[C@](C)(CC(C)C)NC(=O)[C@H](Cc3ccc4ccccc4c3)NC(=O)[C@H](Cc3ccc(OCCN)cc3)NC(=O)[C@H](CCC(=O)N2)NC(=O)[C@H](CCC(N)=O)NC(=O)[C@H](Cc2c[nH]c3ccccc23)NC(=O)[C@H](C(C)C)NC1=O) [Compound 60] |
| 100 | 0.13 nM | 100 | – | [3Amb]SCWQC[AEF][2Nal][αMeL]ER[3Pal]-NH2 (lactam N-10; linker 3-6 via 1,3‑dibromopropan‑2‑one″) [Ref 78] |
| 100 | 31 pM | 97 | – | Ac-KTCWQC[AEF][2Nal][αMeL]E[Dab][3Pal]-NH2 (lactam 1-10; linker 3-6 via 1,3‑dibromopropan‑2‑one″) [Ref 155] |
| 99 | 29 nM | 110 | – | [3Amb]SCWQC[AEF][2Nal][αMeL]E[dR]-NH2 (lactam N-10; linker 3-6 via 1,3‑dibromopropan‑2‑one″) [Ref 41] |
| 102 | 0.23 nM | 103 | – | [dK]TVWQE[AEF][2Nal][αMeL]E[Dab][3Pal]-NH2 (lactam 1-10; lactam (positions not given here); not fully specified (bridges); printed as [{d}K](1c)(6c)^{†}TVWQE(6c)[Y(2-aminoethoxy)][2-Nal][2-Me-Leu]E(1c)[Dab][3-(3-Pyridyl)-Ala]-[NH2]) [Compound 1] |
| – | 28 pM | 97 | – | [4‑Aminomethyl‑phenylacetyl]SEWQ[Dab][AEF][2Nal][αMeL]E[Dab][3Pal]-NH2 (lactam N-10; bridge 3-6; also: (2c) bridge type not defined) [Ref 122] |
| 101 | 1.5 nM | 105 | – | [dK]TVWQD[AEF][2Nal][αMeL]E[Dab][3Pal]-NH2 (lactam 1-10, N-6; SMILES CC(C)C[C@]1(C)NC(=O)[C@H](Cc2ccc3ccccc3c2)NC(=O)[C@H](Cc2ccc(OCCN)cc2)NC(=O)[C@@H]2CC(=O)N[C@H](CCCCNC(=O)CC[C@@H](C(=O)N[C@@H](CCN)C(=O)N[C@@H](Cc3cccnc3)C(N)=O)NC1=O)C(=O)N[C@@H]([C@@H](C)O)C(=O)N[C@@H](C(C)C)C(=O)N[C@@H](Cc1c[nH]c3ccccc13)C(=O)N[C@@H](CCC(N)=O)C(=O)N2) [Compound 3] |
| 100 | – | 104 | – | [bLys]TVWQE[AEF][2Nal][αMeL]E[Dab][3Pal]-NH2 (lactam 1-10, N-6) [Compound 12] |
| 101 | 54 pM | 94 | – | [4‑Aminomethyl‑phenylacetyl]SCWQC[AEF][2Nal][αMeL]E[Dab][3Pal]-NH2 (lactam N-10; linker 3-6 via 1,3‑dibromopropan‑2‑one″) [Ref 120] |
| 97 | 11 nM | 103 | – | [4‑Aminomethyl‑phenylacetyl]SCWQC[AEF][2Nal][αMeL]E[Dab]-NH2 (lactam N-10; linker 3-6 via 1,3‑dibromopropan‑2‑one″) [Ref 82] |
| 103 | 7.8 nM | 100 | – | [4‑Aminomethyl‑phenylacetyl]SCWQC[AEF][2Nal][αMeL]ER-NH2 (lactam N-10; linker 3-6 via 1,3‑dibromopropan‑2‑one″) [Ref 52] |
